# From IntAct's records for PubMed 31515488
# B1: EGF-containing fibulin-like extracellular matrix protein 1 (Homo sapiens), Q12805 (parent)
# chain: MLKALFLTMLTLALVKSQDTEETITYTQCTDGYEWDPVRQQCKDIDECDIVPDACKGGMKCVNHYGGYLCLPKTAQIIVNNEQPQQETQPAEGTSGATTGVVAASSMATSGVLPGGGFVASAAAVAGPEMQTGRNNFVIRRNPADPQRIPSNPSHRIQCAAGYEQSEHNVCQDIDECTAGTHNCRADQVCINLRGSFACQCPPGYQKRGEQCVDIDECTIPPYCHQRCVNTPGSFYCQCSPGFQLAANNYTCVDINECDASNQCAQQCYNILGSFICQCNQGYELSSDRLNCEDIDECRTSSYLCQYQCVNEPGKFSCMCPQGYQVVRSRTCQDINECETTNECREDEMCWNYHGGFRCYPRNPCQDPYILTPENRCVCPVSNAMCRELPQSIVYKYMSIRSDRSVPSDIFQIQATTIYANTINTFRIKSGNENGEFYLRQTSPVSAMLVLVKSLSGPREHIVDLEMLTVSSIGTFRTSSVLRLTIIVGPFSF
# B2: Endothelial transcription factor GATA-2 (Homo sapiens), P23769 (parent)
# chain: MEVAPEQPRWMAHPAVLNAQHPDSHHPGLAHNYMEPAQLLPPDEVDVFFNHLDSQGNPYYANPAHARARVSYSPAHARLTGGQMCRPHLLHSPGLPWLDGGKAALSAAAAHHHNPWTVSPFSKTPLHPSAAGGPGGPLSVYPGAGGGSGGGSGSSVASLTPTAAHSGSHLFGFPPTPPKEVSPDPSTTGAASPASSSAGGSAARGEDKDGVKYQVSLTESMKMESGSPLRPGLATMGTQPATHHPIPTYPSYVPAAAHDYSSGLFHPGGFLGGPASSFTPKQRSKARSCSEGRECVNCGATATPLWRRDGTGHYLCNACGLYHKMNGQNRPLIKPKRRLSAARRAGTCCANCQTTTTTLWRRNANGDPVCNACGLYYKLHNVNRPLTMKKEGIQTRNRKMSNKSKKSKKGAECFEELSKCMQEKSSPFSAAALAGHMAPVGHLPPFSHSGHILPTPTPIHPSSSLSFGHPHPSSMVTAMG
# B3: Scaffold protein ILK (Homo sapiens), Q13418 (parent)
# chain: MDDIFTQCREGNAVAVRLWLDNTENDLNQGDDHGFSPLHWACREGRSAVVEMLIMRGARINVMNRGDDTPLHLAASHGHRDIVQKLLQYKADINAVNEHGNVPLHYACFWGQDQVAEDLVANGALVSICNKYGEMPVDKAKAPLRELLRERAEKMGQNLNRIPYKDTFWKGTTRTRPRNGTLNKHSGIDFKQLNFLTKLNENHSGELWKGRWQGNDIVVKVLKVRDWSTRKSRDFNEECPRLRIFSHPNVLPVLGACQSPPAPHPTLITHWMPYGSLYNVLHEGTNFVVDQSQAVKFALDMARGMAFLHTLEPLIPRHALNSRSVMIDEDMTARISMADVKFSFQCPGRMYAPAWVAPEALQKKPEDTNRRSADMWSFAVLLWELVTREVPFADLSNMEIGMKVALEGLRPTIPPGISPHVCKLMKICMNEDPAKRPKFDMIVPILEKMQDK
# partner: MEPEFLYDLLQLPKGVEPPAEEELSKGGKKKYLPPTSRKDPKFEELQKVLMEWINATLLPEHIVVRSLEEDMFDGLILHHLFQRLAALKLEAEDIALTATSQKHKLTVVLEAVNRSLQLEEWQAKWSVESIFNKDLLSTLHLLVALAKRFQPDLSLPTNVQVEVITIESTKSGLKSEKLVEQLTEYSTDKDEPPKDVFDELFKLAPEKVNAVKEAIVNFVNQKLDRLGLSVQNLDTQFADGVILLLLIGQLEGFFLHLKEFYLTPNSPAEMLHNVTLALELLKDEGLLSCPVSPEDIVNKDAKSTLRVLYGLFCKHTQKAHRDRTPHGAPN
# B4: Protein DBF4 homolog B (Homo sapiens), Q8NFT6 (parent)
# chain: MSEPGKGDDCLELESSMAESRLRAPDLGVSRCLGKCQKNSPGARKHPFSGKSFYLDLPAGKNLQFLTGAIQQLGGVIEGFLSKEVSYIVSSRREVKAESSGKSHRGCPSPSPSEVRVETSAMVDPKGSHPRPSRKPVDSVPLSRGKELLQKAIRNQGSISGGGSGGSSSLLTNARSWGVRILHVDEMMMHVQQLSLASLCVKKQQPKKPEGTCPAAESRTRKVARLKAPFLKIEDESRKFRPFHHQFKSFPEISFLGPKDASPFEAPTTLGSMHHTRESKDGEPSPRSAAHTMPRRKKGYCECCQEAFEELHVHLQSAQHRSFALEAHLYAEVDRIIAQLSHSFADIPFQAGLPRWSGSPASDCDPLCPETLHPHQPSHPRAASPRIRKEDSCQASVTQGRAAGQQRWTESLDGVMGPPASHTCVSATTLLPALPKGSREQGCLCPCPASFTQSHLVTSLALLPGEWSPAEDMPLHPSQENSFAPADIPVKGPLLFPEARPWLMSARCWVRPFPFVTWGCLIPHDTTPLHEEVSPCPCLRLGYLYLLLTQSLWCRVRVPSLSTAGPIPRTSHPCTLAFPSYLNDHDLGHLCQAKPQGWNTPQPFLHCGFLAVDSG
# B5: Keratin-associated protein 5-9 (Homo sapiens), P26371 (parent)
# chain: MGCCGCSGGCGSSCGGCDSSCGSCGSGCRGCGPSCCAPVYCCKPVCCCVPACSCSSCGKRGCGSCGGSKGGCGSCGCSQCSCCKPCCCSSGCGSSCCQCSCCKPYCSQCSCCKPCCSSSGRGSSCCQSSCCKPCCSSSGCGSSCCQSSCCKPCCSQSRCCVPVCYQCKI
# partner: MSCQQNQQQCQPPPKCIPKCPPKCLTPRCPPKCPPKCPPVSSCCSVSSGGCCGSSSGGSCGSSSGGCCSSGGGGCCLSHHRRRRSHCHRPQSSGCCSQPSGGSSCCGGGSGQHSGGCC
# B6: PDZ and LIM domain protein 1 (Homo sapiens), O00151 (parent)
# chain: MTTQQIDLQGPGPWGFRLVGGKDFEQPLAISRVTPGSKAALANLCIGDVITAIDGENTSNMTHLEAQNRIKGCTDNLTLTVARSEHKVWSPLVTEEGKRHPYKMNLASEPQEVLHIGSAHNRSAMPFTASPASSTTARVITNQYNNPAGLYSSENISNFNNALESKTAASGVEANSRPLDHAQPPSSLVIDKESEVYKMLQEKQELNEPPKQSTSFLVLQEILESEEKGDPNKPSGFRSVKAPVTKVAASIGNAQKLPMCDKCGTGIVGVFVKLRDRHRHPECYVCTDCGTNLKQKGHFFVEDQIYCEKHARERVTPPEGYEVVTVFPK
# B7: Nuclear protein AMMECR1 (Homo sapiens), Q9Y4X0 (parent)
# chain: MAAGCCGVKKQKLSSSPPSGSGGGGGASSSSHCSGESQCRAGELGLGGAGTRLNGLGGLTGGGSGSGCTLSPPQGCGGGGGGIALSPPPSCGVGTLLSTPAAATSSSPSSSSAASSSSPGSRKMVVSAEMCCFCFDVLYCHLYGYQQPRTPRFTNEPYPLFVTWKIGRDKRLRGCIGTFSAMNLHSGLREYTLTSALKDSRFPPMTRDELPRLFCSVSLLTNFEDVCDYLDWEVGVHGIRIEFINEKGSKRTATYLPEVAKEQGWDHIQTIDSLLRKGGYKAPITNEFRKTIKLTRYRSEKMTLSYAEYLAHRQHHHFQNGIGHPLPPYNHYS
# Variants of: B1
# Details: with sgta_human SGTA
row,effect of a mutation on the interaction,Variant
1,with no effect,D49A

# Variants of: B1
# Details: with ric8a_human RIC8A
row,effect of a mutation on the interaction,Variant
1,with no effect,D49A

# Variants of: B2
# Details: with fhl3_human FHL3, Q13643
# Sequence of fhl3_human FHL3, Q13643 (Q13643 whole entry): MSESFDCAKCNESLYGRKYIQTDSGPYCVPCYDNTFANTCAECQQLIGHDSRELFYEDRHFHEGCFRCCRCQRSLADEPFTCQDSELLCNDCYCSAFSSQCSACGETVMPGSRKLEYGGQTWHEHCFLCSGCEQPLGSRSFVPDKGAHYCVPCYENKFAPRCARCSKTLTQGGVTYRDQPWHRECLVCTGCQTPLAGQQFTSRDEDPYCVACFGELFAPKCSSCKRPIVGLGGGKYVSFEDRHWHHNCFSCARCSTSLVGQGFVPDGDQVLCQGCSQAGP
row,effect of a mutation on the interaction,Variant
1,with no effect,A164T

# Variants of: B2
# Details: with psa3_human PSMA3, P25788
# Sequence of psa3_human PSMA3, P25788 (P25788 whole entry): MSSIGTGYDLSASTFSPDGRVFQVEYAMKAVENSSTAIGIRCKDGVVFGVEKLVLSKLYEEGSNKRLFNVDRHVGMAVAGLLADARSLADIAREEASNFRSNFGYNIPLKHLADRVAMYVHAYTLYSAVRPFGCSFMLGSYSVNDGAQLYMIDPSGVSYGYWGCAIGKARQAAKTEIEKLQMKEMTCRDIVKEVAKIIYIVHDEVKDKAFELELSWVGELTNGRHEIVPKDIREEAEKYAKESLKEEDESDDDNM
row,effect of a mutation on the interaction,Variant
1,with no effect,A164T

# Variants of: B2
# Details: with tri23_human TRIM23, P36406
# Target sequence in this assay (P36406 whole entry): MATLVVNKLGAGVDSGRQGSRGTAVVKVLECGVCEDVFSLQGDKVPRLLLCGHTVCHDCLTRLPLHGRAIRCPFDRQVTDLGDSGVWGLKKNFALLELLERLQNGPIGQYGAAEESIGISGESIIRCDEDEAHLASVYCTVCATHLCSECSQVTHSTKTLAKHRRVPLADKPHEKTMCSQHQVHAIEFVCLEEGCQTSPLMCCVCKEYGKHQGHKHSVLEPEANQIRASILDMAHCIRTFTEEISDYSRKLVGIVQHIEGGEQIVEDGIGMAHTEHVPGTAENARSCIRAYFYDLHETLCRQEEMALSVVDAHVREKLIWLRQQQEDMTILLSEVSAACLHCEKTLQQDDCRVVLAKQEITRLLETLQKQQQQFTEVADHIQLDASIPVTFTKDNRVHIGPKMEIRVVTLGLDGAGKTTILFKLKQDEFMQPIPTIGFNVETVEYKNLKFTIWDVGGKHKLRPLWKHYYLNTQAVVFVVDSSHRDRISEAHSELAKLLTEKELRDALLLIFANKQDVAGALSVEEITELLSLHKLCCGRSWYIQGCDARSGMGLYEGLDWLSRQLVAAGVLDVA
row,effect of a mutation on the interaction,Variant
1,with no effect,A164T

# Variants of: B2
# Details: with mdfi_human MDFI
row,effect of a mutation on the interaction,Variant
1,with no effect,A164T

# Variants of: B3
# Details: with parvg_human PARVG
row,effect of a mutation on the interaction,Variant
1,with no effect,V340G

# Variants of: B4
# Details: with tri23_human TRIM23, P36406
# Target sequence in this assay (P36406 whole entry): as above
row,effect of a mutation on the interaction,Variant
1,disrupting interaction strength,L199S

# Variants of: B5
# Details: with lce1b_human LCE1B
row,effect of a mutation on the interaction,Variant
1,with no effect,Y40C

# Variants of: B6
# Details: with gfap_human GFAP
row,effect of a mutation on the interaction,Variant
1,with no effect,N175S

# Variants of: B7
# Details: with rbpms_human RBPMS
row,effect of a mutation on the interaction,Variant
1,with no effect,R207G
